First the molecules themselves.
B1: Pin1_(PPIase) (50–163) (domain or fragment, human, UniProt Q13526 50-163, looked up)
chain: GEPARVRCSHLLVKHSQSRRPSSWRQEKITRTKEEALELINGYIQKIKSGEEDFESLASQFSDCSSAKARGDLGAFSRGQMQKPFEDASFALRTGEMSGPVFTDSGIHIILRTE
B2: c-Myc_(1–88) (domain or fragment, human, UniProt P01106-1 1-88, looked up)
chain: MPLNVSFTNRNYDLDYDSVQPYFYCDEEENFYQQQQQSELQPPAPSEDIWKKFELLPTPPLSPSRRSGLCSPSYVAVTPFSLRGDNDG
B3: pSer62-c-Myc_(1–88) (domain or fragment, human, UniProt P01106-1 1-88, looked up)
chain: B2 chain
modifications: phosphoserine at 62

The target of the assay “c-Myc_(1–88)” is B2. Briefly: SPR. (In general: Surface plasmon resonance follows binding to a sensor surface in real time, without labels.)
The target in assay [1] is T1, full-length Pin1 (1–163) (human, UniProt Q13526 1-163). The experiment in a line: SPR.
Assay [2] has as its target T1, full-length Pin1 (1–163). Briefly: ITC.

T1 sequence (Q13526 whole entry): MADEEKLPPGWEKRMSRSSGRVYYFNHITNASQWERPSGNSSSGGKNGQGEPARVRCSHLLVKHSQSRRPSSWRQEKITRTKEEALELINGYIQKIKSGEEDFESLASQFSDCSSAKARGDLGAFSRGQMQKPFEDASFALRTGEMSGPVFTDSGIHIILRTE

Consider B1, for which the “fold weaker affinity than intact Pin1” value with c-Myc_(1–88) is above 10 fold.

Turning to KLPPGWEKRMSRSSGRVYYFNHITNASQWERPSG (domain or fragment, human, UniProt Q13526 6-39, looked up) [Pin1WW (6–39)], the “fold weaker affinity than intact Pin1” value with c-Myc_(1–88) is above 10 fold. As to B2, binding in the assay with full-length Pin1 (1–163) [1] was put at a Kd of 4 µM. B3 yielded a Kd in the assay with full-length Pin1 (1–163) [2] of 10 to 100 µM.

What is called Kd is the concentration at which binding is half-saturated. Higher therefore signals weaker binding.

Source of the values: publication PMC4807222 (Structure (London, England : 1993), 2015).
